Assay results published in patent publication US5831003A, “Peptides which bind to prothrombin and thrombin” (Bayer Corporation, priority 1996, dated 1998).
“And” between values parts separate entries of the source, which are not always exact repeats. Equal entries are not always repeated. Ends that are not written are not given here.

How the values were obtained:
α-thrombin [1] = target: T1, α-thrombin (Homo sapiens, UniProt P00734); test: Confirmatory binding assay in column chromatographic format, peptides synthesized on A-Totda-Toyopearl; settings: for dose dependence of thrombin in the acid eluant (in words): 50, 100 and 200 μg α-thrombin; for binding of thrombin to peptide resin (in words): summary of Table 2
T1 construct: α-Thrombin is the active form of the plasma serine protease zymogen, prothrombin; purchased Enzyme Research Labs (South Bend, Ind.)
Method: Confirmatory binding assays were performed in a column chromatographic format on a microbore HPLC using individual peptide sequences synthesized directly onto the Toyopearl 650 M Chelate resin which had been modified with Totda followed by an alanine residue (A-Totda-Toyopearl), at a final substitution density of 0.2 mmol/g resin. […] The endpoint was a dose-dependent increase in the acid eluate in the thrombin contactings, and quantification was by integration of the absorbance at 280 nm.

thrombin = target: T2, thrombin (Homo sapiens, UniProt P00734); test: Purification of α-thrombin from activated PTC eluate on QLWGSH-A-Totda-Toyopearl; assay type: binding; settings: SDS-PAGE and western blot
T2 construct: from tissue
Method: Human pooled plasma was processed to PTC eluate by standard manufacturing techniques. In brief, DEAE-Sephadex resin was added to post cryoprecipitate eluant and loosely bound protein was washed away with a low salt buffer. Higher concentrations of NaCl eluted the fraction called PTC eluate which contains prothrombin and the vitamin K-dependent coagulation protease zymogens (factors VII, IX, X, protein C and protein S). A sample of PTC eluate was activated in the presence of 25% (w/w) sodium citrate for 4 days at room temperature. Approximately 1.0 ml of activated PTC eluate was injected onto the peptide resin QLWGSH-A-Totda-Toyopearl (FIG. 2 A). The column was washed with equilibration buffer (10 mM HEPES, pH 6.8, 1.0 mM EGTA and 0.1% v/v Tween-20) containing 1.0 M NaCl and then washed further with equilibration buffer containing 3.0 M NaCl. Acid treatment (2.5% acetic acid) was used to release protein from the peptide resin.

prothrombin = target: T3, prothrombin (Homo sapiens, UniProt P00734); test: Purification of prothrombin from PTC eluate on QLWGSH-A-Totda-Toyopearl; assay type: binding; settings: SDS-PAGE and western blot; released with 1 M NaCl
T3 construct: from tissue
Method: Human pooled plasma was processed to PTC eluate by standard manufacturing procedures as indicated in Example 1. Approximately 1.0 ml of PTC eluate was injected onto the peptide resin QLWGSH-A-Totda-Toyopearl (FIG. 2 B). The column was washed with equilibration buffer containing 1.0 M NaCl and then containing 3.0 M NaCl. Acid treatment (2.5% acetic acid) was used to release protein from peptide resin.

α-thrombin [2] = target: T1, α-thrombin; test: Purification of α-thrombin from activated PTC eluate on YFPGPYL-Totda-Toyopearl; assay type: binding
Method: Human pooled plasma was processed to PTC eluate by standard manufacturing procedures as indicated in Example 1. A sample of the PTC eluate was activated in the presence of 50 mM CaCl2 for 6 days at 4° C. Approximately 1 ml of the activated PTC eluate, spiked with 300 μg α-thrombin, was injected onto the peptide resin YFPGPYL-Totda-Toyopearl (FIG. 6). The column was washed with equilibration buffer (10 mM HEPES, pH 6.5, 10 mM CaCl2, 500 mM NaCl, 0.1% (v/v) PEG-400) until the A280 returned to base-line. […] Acid treatment (2% acetic acid) was used as a cleaning step to remove protein still bound to the column.

[3] = 50 μg α-thrombin applied, integration of A280
[4] = 100 μg α-thrombin applied, integration of A280
[5] = 200 μg α-thrombin applied, integration of A280

QLWGSH (not fully specified (C-terminus))
Absorbance, 280 nm 2% Acetic Acid (α-thrombin [1]; [3]): 1.54 and 1.39
Absorbance, 280 nm 2% Acetic Acid (α-thrombin [1]; [4]): 3.23 and 2.09
Absorbance, 280 nm 2% Acetic Acid (α-thrombin [1]; [5]): 6.92 and 3.71
dose dependence of thrombin in the acid eluant (in words) (α-thrombin [1]): dose dependent increase
binding of thrombin to peptide resin (in words) (α-thrombin [1]): bound thrombin
binding and enrichment of thrombin from activated PTC eluate (in words) (thrombin): bound and enriched thrombin
binding of prothrombin from unactivated PTC eluate (in words) (prothrombin): prothrombin bound the peptide

VFPYGW (not fully specified (C-terminus)) [peptide synthesized on A-Totda-Toyopearl resin]
Absorbance, 280 nm 1M NaCl Eluate (α-thrombin [1]; [3]): np
Absorbance, 280 nm 2% Acetic Acid (α-thrombin [1]; [3]): 0.88
Absorbance, 280 nm 1M NaCl Eluate (α-thrombin [1]; [4]): np
Absorbance, 280 nm 2% Acetic Acid (α-thrombin [1]; [4]): 1.46
Absorbance, 280 nm 1M NaCl Eluate (α-thrombin [1]; [5]): np
Absorbance, 280 nm 2% Acetic Acid (α-thrombin [1]; [5]): 2.01
binding of thrombin to peptide resin (in words) (α-thrombin [1]): bound thrombin

VFPYVW (not fully specified (C-terminus)) [peptide synthesized on A-Totda-Toyopearl resin]
Absorbance, 280 nm 1M NaCl Eluate (α-thrombin [1]; [3]): np
Absorbance, 280 nm 2% Acetic Acid (α-thrombin [1]; [3]): 0.81
Absorbance, 280 nm 1M NaCl Eluate (α-thrombin [1]; [4]): np
Absorbance, 280 nm 2% Acetic Acid (α-thrombin [1]; [4]): 1.21
Absorbance, 280 nm 1M NaCl Eluate (α-thrombin [1]; [5]): np
Absorbance, 280 nm 2% Acetic Acid (α-thrombin [1]; [5]): 1.81
binding of thrombin to peptide resin (in words) (α-thrombin [1]): bound thrombin

VTPFAV (not fully specified (C-terminus)) [peptide synthesized on A-Totda-Toyopearl resin]
Absorbance, 280 nm 1M NaCl Eluate (α-thrombin [1]; [3]): np
Absorbance, 280 nm 2% Acetic Acid (α-thrombin [1]; [3]): 0.00
Absorbance, 280 nm 1M NaCl Eluate (α-thrombin [1]; [4]): np
Absorbance, 280 nm 2% Acetic Acid (α-thrombin [1]; [4]): 0.00
Absorbance, 280 nm 1M NaCl Eluate (α-thrombin [1]; [5]): np
Absorbance, 280 nm 2% Acetic Acid (α-thrombin [1]; [5]): 0.00

YFPGPYL (not fully specified (C-terminus))
Absorbance, 280 nm 2% Acetic Acid (α-thrombin [1]; 50 μg α-thrombin applied in a solution containing 5 mg/ml hSA): 2.10
Absorbance, 280 nm 2% Acetic Acid (α-thrombin [1]; 100 μg α-thrombin applied in a solution containing 5 mg/ml hSA): 2.93
Absorbance, 280 nm 2% Acetic Acid (α-thrombin [1]; 200 μg α-thrombin applied in a solution containing 5 mg/ml hSA): 4.72
dose dependence of thrombin in the acid eluant (in words) (α-thrombin [1]): dose dependent increase
binding of thrombin to peptide resin (in words) (α-thrombin [1]): bound thrombin
thrombin content of protein released by 1 mM sodium citrate pH 7.0 (α-thrombin [2]; quantitative scanning of SDS-PAGE, activated PTC eluate spiked with 300 μg α-thrombin): at least 72%
binding of thrombin from activated PTC eluate (in words) (α-thrombin [2]; released by 1 mM sodium citrate pH 7.0): thrombin bound

YTPFAV (not fully specified (C-terminus)) [peptide synthesized on A-Totda-Toyopearl resin]
Absorbance, 280 nm 1M NaCl Eluate (α-thrombin [1]; [3]): np
Absorbance, 280 nm 2% Acetic Acid (α-thrombin [1]; [3]): 0.16
Absorbance, 280 nm 1M NaCl Eluate (α-thrombin [1]; [4]): np
Absorbance, 280 nm 2% Acetic Acid (α-thrombin [1]; [4]): 0.28
Absorbance, 280 nm 1M NaCl Eluate (α-thrombin [1]; [5]): np
Absorbance, 280 nm 2% Acetic Acid (α-thrombin [1]; [5]): 0.34
binding of thrombin to peptide resin (in words) (α-thrombin [1]): bound thrombin
